The text below walks through data of PMC3280215 (Science (New York, N.y.), 2011).

Residue numbers refer to the chain shown, from its start.

B1: PGT 128 VH H52aA (antibody, V domains shown)
VH: QPQLQESGPTLVEASETLSLTCAVSGDSTAACNSFWGWVRQPPGKGLEWVGSLSACASYWNRGWTYHNPSLKSRLTLALDTPKNLVFLKLNSVTAADTATYYCARFGGEVLRYTDWPKPAWVDLWGRGTLVTVSS
VL: QSALTQPPSASGSPGQSITISCTGTSNNFVSWYQQHAGKAPKLVIYDVNKRPSGVPDRFSGSKSGNTASLTVSGLQTDDEAVYYCGSLVGNWDVIFGGGTKLTVL
B2: PGT 127 (format not stated for the experiment) (antibody, V domains shown)
VH: QPQLQESGPGLVEASETLSLTCTVSGDSTGRCNYFWGWVRQPPGKGLEWIGSLSHCRSYYNTDWTYHNPSLKSRLTISLDTPKNQVFLRLTSVTAADTATYYCARFGGEVLVYRDWPKPAWVDLWGRGTLVTVSS
VL: B1 VL with H36Y, A37P, D47E, N66S, T77A, A81G, G86S
B3: PGT 128 (format not stated for the experiment) (antibody, V domains shown)
VH: B1 VH with A55H
VL: B1 VL
B4: PGT 128 IgG (antibody, V domains shown)
VH: B1 VH with A55H
VL: B1 VL
B5: Fab PGT 128 (Fab, V domains shown)
VH: B1 VH with A55H
VL: B1 VL
B6: Fab PGT 127 (Fab, V domains shown)
VH: B2 VH
VL: B1 VL with H36Y, A37P, D47E, N66S, T77A, A81G, G86S
B7: PGT 127 IgG (antibody, V domains shown)
VH: B2 VH
VL: B1 VL with H36Y, A37P, D47E, N66S, T77A, A81G, G86S

The target in the first assay is gp120 (of the ELISA) (HIV-1, strain  for ELISA; …, UniProt Q75760). Briefly: ELISA. A general note: An ELISA detects its analyte on a solid surface through an enzyme-linked reagent.
Turning to B1, the binding result is recorded as “binds”.
On the same count and under the same terms, in the case of B2 it was “binds”; in that of B3, “binds”.

The target in a further assay is HIV-1 YU2 Env on the cell surface (HIV-1 YU2, UniProt P35961). As to the kind of experiment: flow cytometry on cells. On the technique in general: Flow cytometry measures light scatter and fluorescence of single cells or particles in a stream.
On to B4, for which the binding result is given as “binds”.
Same read-out and setting: in the case of B5 it was “binds”; in that of B6, “binds”.
The same measure, in the same setting: in the case of B7 it was “binds”.
